# Measured values from article PMC4974476, “Structural basis for LIN54 recognition of CHR elements in cell cycle-regulated promoters”.
# Experiments:
# [1] = target: T1, LIN54 DBD (Homo sapiens, UniProt Q6MZP7 515-646); experiment: fluorescence polarization; ITC (25 C) and FP: 20 mM Tris, 150 mM NaCl, 0.1% Tween 20, pH 8.0; NMR: 35 mM MES, 75 mM NaCl, 5% D2O, pH 6.0, 25 C; settings: protein: recombinant, tags: N-terminal GST with TEV site, cleaved, blunt
# [2] = target: T2, LIN54 DBD-C (Homo sapiens, UniProt Q6MZP7 589-646); experiment: NMR HSQC titration; 35 mM MES, 75 mM NaCl, pH 6.0, 25 C; ITC (25 C) and FP: 20 mM Tris, 150 mM NaCl, 0.1% Tween 20, pH 8.0; NMR: 35 mM MES, 75 mM NaCl, 5% D2O, pH 6.0, 25 C; settings: protein: recombinant; tags: N-terminal GST with TEV site, cleaved; blunt
# T2 sequence (Q6MZP7 589-646): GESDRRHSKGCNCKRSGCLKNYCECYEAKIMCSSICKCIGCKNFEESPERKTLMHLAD
# [3] = target: LIN54 DBD Y536A (Homo sapiens, UniProt Q6MZP7 515-646, Y536A); experiment: ITC; ITC (25 C) and FP: 20 mM Tris, 150 mM NaCl, 0.1% Tween 20, pH 8.0; NMR: 35 mM MES, 75 mM NaCl, 5% D2O, pH 6.0, 25 C; settings: protein: recombinant; tags: N-terminal GST with TEV site, cleaved; blunt
# Sequence of LIN54 DBD Y536A (Q6MZP7 515-646 Y536A): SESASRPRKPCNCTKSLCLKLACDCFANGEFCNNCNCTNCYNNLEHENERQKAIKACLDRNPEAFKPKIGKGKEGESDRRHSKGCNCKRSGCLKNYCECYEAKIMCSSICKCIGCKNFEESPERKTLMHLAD
# [4] = target: LIN54 DBD Y610A (Homo sapiens, UniProt Q6MZP7 515-646, Y610A); experiment: as above; settings: protein: recombinant; tags: N-terminal GST with TEV site, cleaved; blunt
# Sequence of LIN54 DBD Y610A (Q6MZP7 515-646 Y610A): as the sequence (Q6MZP7 515-646 Y536A) above, with A22Y, Y96A counted along it
# [5] = target: LIN54 DBD Y536R (Homo sapiens, UniProt Q6MZP7 515-646, Y536R); experiment: as above; settings: protein: recombinant; tags: N-terminal GST with TEV site, cleaved; blunt
# Sequence of LIN54 DBD Y536R (Q6MZP7 515-646 Y536R): as the sequence (Q6MZP7 515-646 Y536A) above, with A22R counted along it
# [6] = target: LIN54 DBD Y610F (Homo sapiens, UniProt Q6MZP7 515-646, Y610F); experiment: as above; settings: protein: recombinant; tags: N-terminal GST with TEV site, cleaved; blunt
# Sequence of LIN54 DBD Y610F (Q6MZP7 515-646 Y610F): as the sequence (Q6MZP7 515-646 Y536A) above, with A22Y, Y96F counted along it
# [7] = target: LIN54 DBD Y536F (Homo sapiens, UniProt Q6MZP7 515-646, Y536F); experiment: as above; settings: protein: recombinant; tags: N-terminal GST with TEV site, cleaved; blunt
# Sequence of LIN54 DBD Y536F (Q6MZP7 515-646 Y536F): as the sequence (Q6MZP7 515-646 Y536A) above, with A22F counted along it
# [8] = target: T1, LIN54 DBD; experiment: as above; settings: protein: recombinant; tags: N-terminal GST with TEV site, cleaved; blunt
# [9] = target: LIN54 DBD Y610R (Homo sapiens, UniProt Q6MZP7 515-646, Y610R); experiment: as above; settings: protein: recombinant; tags: N-terminal GST with TEV site, cleaved; blunt
# Sequence of LIN54 DBD Y610R (Q6MZP7 515-646 Y610R): as the sequence (Q6MZP7 515-646 Y536A) above, with A22Y, Y96R counted along it
# [10] = target: LIN54 DBD-N (Homo sapiens, UniProt Q6MZP7 515-574); experiment: fluorescence polarization; ITC (25 C) and FP: 20 mM Tris, 150 mM NaCl, 0.1% Tween 20, pH 8.0; NMR: 35 mM MES, 75 mM NaCl, 5% D2O, pH 6.0, 25 C; settings: protein: recombinant; tags: N-terminal GST with TEV site, cleaved; label: 3' TAMRA on strand 1; blunt
# Sequence of LIN54 DBD-N (Q6MZP7 515-574): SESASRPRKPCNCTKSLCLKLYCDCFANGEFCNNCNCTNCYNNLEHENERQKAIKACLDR
# [11] = target: T2, LIN54 DBD-C; experiment: as above; settings: protein: recombinant; tags: N-terminal GST with TEV site, cleaved; label: 3' TAMRA on strand 1; blunt
# T1 sequence (Q6MZP7 515-646): as the sequence (Q6MZP7 515-646 Y536A) above, with A22Y counted along it
binder,measurement,setting,value
CHR13 (FP) (dsDNA) DNA 1: GAGTTTGAAACTG DNA 2: CAGTTTCAAACTC,Kd,[1],5 ± 2 µM
CHR13 (dsDNA) DNA 1: GAGTTTGAAACTG DNA 2: CAGTTTCAAACTC,Kd,[2],500 ± 100 µM
same,binding result,[3],no binding
same,binding result,[4],no binding
same,binding result,[5],no binding
same,binding result,[6],no binding
same,binding result,[7],no binding
same,Kd,[8],2.8 ± 0.1 µM
same,binding result,[9],no binding
CHR27 (dsDNA) DNA 1: CCTTTAGCGCGGTGAGTTTGAAACTGTAA DNA 2: TTACAGTTTCAAACTCACCGCGCTAAAGG,binding result,[10],no binding
same,binding result,[11],no binding
same,Kd,[1]; label: 3' TAMRA on strand 1,0.43 ± 0.08 µM
